Assay in all cases: cell-based or functional assay
Assay [1] addresses HA of H5N1 A/Vietnam/1194/04 (influenza A virus).
Assay [2] addresses HA of H1N1 A/Brisbane/59/07 (influenza A virus).
For assay [3], the target named is HA of H7N3 A/NIBRG/60 (A/mallard/NL/12/00) (influenza A virus).
Assay [4] has as its target HA of H1N1 A/New Caledonia/20/1999 (influenza A virus).
Assay [5] deals with HA of H3N2 A/Brisbane/10/2007 (influenza A virus).
Assay [6] deals with hemagglutinin (HA) of influenza virus B/Lee/40 (Old) (influenza B virus) (UniProt P03460).
In assay [7] the target is hemagglutinin (HA) of influenza virus B/Florida/04/06 (Yamagata) (influenza B virus).
Assay [8] deals with hemagglutinin (HA) of influenza virus H1N1 A/Puerto Rico/8/34-MA (influenza A virus).
In assay [9] the target is hemagglutinin (HA) of influenza virus H5N1 A/Vietnam/1194/04 (influenza A virus).
The target of assay [10] is hemagglutinin (HA) of influenza virus H3N2 A/HK/1/68-MA (influenza A virus).
Assay [11] concerns the target hemagglutinin (HA) of influenza virus H7N3 A/NIBRG/60 (A/mallard/Netherlands/12/00) (influenza A virus).
Assay [12] deals with hemagglutinin (HA) of influenza A/Hong Kong/1/68 (H3N2) (influenza A virus A/Hong Kong/1/68 (H3N2)) (UniProt Q91MA7).
For assay [13], the target named is hemagglutinin (HA) of influenza A/Vietnam/1194/04 (H5N1) (influenza A virus A/Vietnam/1194/04 (H5N1)).
The target in assay [14] is hemagglutinin (HA) of influenza A/Brisbane/10/07 (H3N2) (influenza A virus A/Brisbane/10/07 (H3N2)).
For assay [15], the target named is hemagglutinin (HA) of influenza A/New Caledonia/20/99 (H1N1) (influenza A virus A/New Caledonia/20/99 (H1N1)).

Some results are limits rather than exact numbers.

Experimental findings from patent publication US20190359693A1 are described below.

B1: SD1017 (VHH)
VHH: EVQLVESGGGLVQAGGSLRLSCAASGRTYAMAWFRQAPGKEREFVAHINALGTRAYYSDSVEGRFTISRDNAKNTGYLQMNSLEPEDTAVYVCAAGGQWRAAPVADAAQYDFWGQGTQVTVSS
Regarding B1, the VNA titer in [1] is > 1000 nM; in [2], > 1000 nM; in assay [3] it was 34.7 nM; in assay [4] it was > 1000 nM; in assay [5], > 1000 nM.

B2: MD2402 (protein)
chain: EVQLVESGGGLVQPGGSLRLSCAVSISIFDIYAMDWYRQAPGKQRDLVATSFRDGSTNYADSVKGRFTISRDNAKNTLYLQMNSLKPEDTAVYLCHVSLYRDPLGVAGGMGVYWGKGALVTVSSAAAGGGGSGGGGSGGGGSGGGGSGGGGSGGGGSGGGGSEVQLVESGGGLVQAGGSLKLSCAASGRTYAMGWFRQAPGKEREFVAHINALGTRTYYSDSVKGRFTISRDNAKNTEYLEMNNLKPEDTAVYYCTAQGQWRAAPVAVAAEYEFWGQGTQVTVSSLINLEGGGGSGGGGSGGGGSGGGGSGGGGSGGGGSGGGGSPAGEVQLVESGGGLVQPGGSLRLSCAATGFTLENKAIGWFRQTPGSEREGVLCISKSGSWTYYTDSMRGRFTISRDNAENTVYLQMDSLKPEDTAVYYCATTTAGGGLCWDGTTFSRLASSWGQGTQVTVSSAAAGGGGSGGGGSGGGGSGGGGSGGGGSGGGGSGGGGSEVQLVESGGGLVQPGGSLKLSCAASGFTFSTSWMYWLRQAPGKGLEWVSVINTDGGTYYADSVKDRFTISRDNAKDTLYLQMSSLKSEDTAVYYCAKDWGGPEPTRGQGTQVTVSS
Turning to B2, the average neutralization titer in assay [6] was determined as 35.4 nM; in assay [7], 14.1 nM; in assay [8], 12.8 nM; in assay [9], 23.8 nM; in assay [10], 28.3 nM; in assay [11], 33.6 nM.

B3: SD3013 (VHH)
VHH: EVQLVESGGGVVQPGGSLRLSCAASISIFDIYAMDWYRQAPGKQRELVATSFRDGSTYYADSVKGRFTISRDNSKNTLYLQMNSLRAEDTAVYLCHVSLYRDPLGVAGGMGVYWGKGALVTVSS
Turning to B3, the VNA IC50 in [12] is 126 nM; in [13] it was 20 nM; in assay [14], 318 nM; in assay [15], 6 nM.

B4: SD3119 (VHH)
VHH: QVQLVESGGGVVQPGGSLRLSCAASISIFDIYAMDWYRQAPGKQRELVAVSFRDGSTYYADSVKGRFTISRDNSKNTLYLQMNSLRAEDTAVYYCHVSLYRDPLGVAGGIGVYWGQGTLVTVSS
B4: the VNA IC50 in assay [12] was 101 nM; in assay [13], 6 nM; in assay [14] it was 253 nM; in assay [15] it was 3 nM.

B5: SD3079 (VHH)
VHH: EVQLVESGGGVVQPGGSLRLSCAASISIFDIYAMDWYRQAPGKQRELVAVSFRDGSTYYADSVKGRFTISRDNSKNTLYLQMNSLRAEDTAVYYCHVSLYRDPLGVAGGLGVYWGQGTLVTVSS
For the molecule B5, the VNA IC50 in assay [12] was determined as 503 nM; in assay [13], 16 nM; in [14], 949 nM; in assay [15] it was 5 nM.
